# Where two headings read alike, the source gives them in different places. Ends that are not written are not given here.
# Key:
# [1] = biological target: T1, human μ opioid receptor coupled to G protein-activated K+ channel (Homo sapiens, UniProt P35372); assay type: cell-based
# T1 construct: Messenger RNAs encoding both proteins (Chen and Yu, 1994) were generated by in vitro transcription and injected into Xenopus oocytes; expressed in transfected cells; host or cells: Xenopus laevis oocytes (mRNA injection)
# [2] = biological target: T2, rat μ opioid receptor coupled to G protein-activated K+ channel (Rattus norvegicus, UniProt P33535, V245I); assay type: cell-based
# T2 construct: A cDNA clone, MOR-1, containing the protein coding region of a rat μ opioid receptor has been described; expressed in transfected cells; host or cells: Xenopus oocytes (mRNA injection)
# [3] = biological target: T3, rat μ-opioid receptor MOR-1 (Rattus norvegicus, UniProt P33535, V245I); assay: biochemical; assay type: binding
# T3 construct: A 1.4-kilobase HindIII fragment encompassing the open reading frame from the cDNA encoding MOR-1 was cloned; expressed in transfected cells; host or cells: COS-7
# [4] = biological target: T4, novel member of the opioid receptor gene family (SEQ ID NO: 17) (Rattus norvegicus, UniProt P35370); assay type: cell-based
# T4 construct: mRNA of this clone was synthesized by in vitro transcription and coinjected into Xenopus oocytes; expressed in transfected cells; host or cells: Xenopus oocytes (mRNA injection)
# T4 sequence (P35370 whole entry): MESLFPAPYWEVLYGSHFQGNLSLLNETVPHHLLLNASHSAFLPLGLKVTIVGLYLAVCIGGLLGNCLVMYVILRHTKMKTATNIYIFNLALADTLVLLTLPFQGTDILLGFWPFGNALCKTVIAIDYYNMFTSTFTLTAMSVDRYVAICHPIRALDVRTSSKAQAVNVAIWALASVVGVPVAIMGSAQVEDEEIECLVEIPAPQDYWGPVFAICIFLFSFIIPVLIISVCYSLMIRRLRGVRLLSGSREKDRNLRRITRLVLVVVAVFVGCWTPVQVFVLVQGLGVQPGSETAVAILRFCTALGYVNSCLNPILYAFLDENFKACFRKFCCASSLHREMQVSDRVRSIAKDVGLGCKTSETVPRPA
# rat μ opioid receptor = biological target: T5, rat μ opioid receptor (Rattus norvegicus, UniProt P33535, V245I); assay type: binding
# T5 construct: A plasmid containing a 1.4 kb cDNA for the rat μ opioid receptor in a mammalian expression vector pRc/CMV has been described; expressed in transfected cells
# [5] = biological target: T6, human μ receptor (adenylyl cyclase) (Homo sapiens, UniProt P35372); assay type: cell-based
# T6 construct: the cDNA containing the open reading frame of the receptor was cloned downstream of the human cytomegalovirus promoter in the mammalian expression vector pcDNA3; expressed in transfected cells; host or cells: COS-7 (transient)
# [6] = biological target: T7, cloned human μ opioid receptor (Homo sapiens, UniProt P35372); details: read-out: Binding potencies (Ki-nM), human μ receptor, [3H]DAMGO
# T7 construct: the cDNA containing the open reading frame of the receptor was cloned downstream of the human cytomegalovirus promoter in the mammalian expression vector pcDNA3; expressed in transfected cells; host or cells: COS-7 (transient)
# [7] = biological target: T8, cloned human mu opioid receptor (human, UniProt P35372 1-400); assay: inhibition of 2 nM [3H]DAMGO binding; membranes of COS-7 cells expressing the human µ receptor
# T8 construct: Full-length receptor expressed from pcDNA3 in COS-7 cells (membranes) or from mRNA in Xenopus oocytes; also called human µ opioid receptor; human µ receptor
# [8] = biological target: human μ opioid receptor hμOR1 (Homo sapiens, UniProt P35372, D51N)
# Mu1 site = details: Clark et al., 1988; cited from earlier work
# Mu2 site = details: Clark et al., 1988; cited from earlier work
# [9] = biological target: μ opioid receptor (PL-17 sites), guinea pig brain membranes; details: read-out: affinity (displacement of radiolabeled PL-17); Kawasaki et al., 1990; cited from earlier work
# [10] = biological target: mu opioid receptor (DAMGO sites); details: read-out: affinity (displacement of radiolabeled DAMGO); Vaughn and Taylor, 1989; cited from earlier work
# [11] = biological target: T9, rat mu opioid receptor MOR-1 (rat, UniProt P33535 1-398); assay: cell-based or functional assay
# T9 construct: Full-length receptor expressed from the cDNA in COS-7 cells (membranes), stably in CHO cells (membranes, whole cells) or in Xenopus oocytes; also called rat µ-opioid receptor; cloned rat µ receptor
# [12] = biological target: T9, rat mu opioid receptor MOR-1; assay: saturation binding; membranes of stably transfected CHO cells
# [13] = biological target: T9, rat mu opioid receptor MOR-1; assay: [3H]DAMGO binding to COS-7 membranes with 100 mM GTPgS in the assay
# [14] = biological target: T8, cloned human mu opioid receptor; assay: as above
# [15] = biological target: T9, rat mu opioid receptor MOR-1; assay: saturation binding of [3H]DAMGO; membranes of stably transfected CHO cells
# [16] = biological target: T8, cloned human mu opioid receptor; assay: saturation binding; membranes of COS-7 cells expressing the human µ receptor
# [17] = biological target: T9, rat mu opioid receptor MOR-1; assay: [3H]DAMGO binding to membranes of COS-7 cells pretreated with pertussis toxin
# [18] = biological target: T8, cloned human mu opioid receptor; assay: as above
# [19] = biological target: T9, rat mu opioid receptor MOR-1; assay: displacement of 0.25 nM [3H]diprenorphine; membranes of COS-7 cells expressing MOR-1
# [20] = biological target: T8, cloned human mu opioid receptor; assay: saturation binding, Scatchard analysis; membranes of COS-7 cells expressing the human µ receptor
# [21] = biological target: T9, rat mu opioid receptor MOR-1; assay: whole-oocyte binding of 1 nM ^3H-DAMGO; oocytes injected with mRNAs for the µ receptor and the K^+ channel
# [22] = biological target: T8, cloned human mu opioid receptor; assay: displacement of […] [3H]DAMGO; membranes of COS-7 cells expressing the human µ receptor
# [23] = biological target: T9, rat mu opioid receptor MOR-1; assay: inhibition of [3H]DAMGO binding; membranes of COS-7 cells expressing the rat µ receptor
molecule,measurement,setting,value
CC1=C[C@H]2[C@@]3(O)[C@H](C)[C@@H](O)[C@]4(O)[C@H]([C@@H]3C=C(CO)C[C@@]2(O)C1=O)C4(C)C [4α-phorbol],second DAMGO response relative to the first (peak current),[1],87%+2%
"Nc1ncnc2c1nc(Sc1ccc(Cl)cc1)n2[C@@H]1O[C@@H]2COP(=O)(O)O[C@H]2[C@H]1O [8-CPT-cAMP, 8-chlorophenylthio-cAMP]",effect of kinase modulators on desensitization (in words),[2],completely abolished the desensitization
COc1cccc2c1[C@]13CCN(CC4CC4)[C@H](C2)[C@]1(OC)CCC(=O)C3 [Cyprodime],Ki,[3],9.1 ± 2.8 nM
same,Ki values (in words),[3],nanomolar range
"CC1(C)SSC(C)(C)[C@@H](NC(=O)[C@@H](N)Cc2ccc(O)cc2)C(=O)NCC(=O)N[C@@H](Cc2ccccc2)C(=O)N[C@H]1C(=O)O [DPDPE, [D-Pen^2.5]-enkephalin]",induction of potassium conductance (in words),[4],no potassium conductance was induced
"CC(C)C[C@H](NC(=O)[C@H](Cc1ccccc1)NC(=O)CNC(=O)[C@@H](CO)NC(=O)[C@@H](N)Cc1ccc(O)cc1)C(=O)N[C@H](C(=O)O)[C@@H](C)O [DSLET, [D-Ser, Leu^5, Thr^6]-enkephalin]",Ki,[3],314 nM
Nc1nc2c(ncn2[C@@H]2O[C@H](COP(=O)(O)OP(=O)(O)OP(=O)(O)O)[C@@H](O)[C@H]2O)c(=O)[nH]1 [GTP],effect on specific [3H]DAMGO binding (in words),rat μ opioid receptor,decrease the specific binding
Nc1nc2c(ncn2[C@@H]2O[C@H](COP(=O)(O)OP(=O)(O)NP(=O)(O)O)[C@@H](O)[C@H]2O)c(=O)[nH]1 [Gp(NH)pp],effect on specific [3H]DAMGO binding (in words),rat μ opioid receptor,decrease the specific binding
"CCCCCCCCCCCCCC(=O)O[C@@H]1[C@@H](C)[C@@]2(O)[C@@H](C=C(CO)C[C@]3(O)C(=O)C(C)=C[C@@H]23)[C@@H]2C(C)(C)[C@]12OC(C)=O [PMA, phorbol 12-myristate 13-acetate]",second DAMGO response relative to the first (peak current),[1],29%+7%
same,effect of kinase modulators on desensitization (in words),[2],further reduced the second response
CN1CC[C@]23CCCC[C@H]2[C@H]1Cc1ccc(O)cc13 [levorphanol],effect on forskolin-stimulated cAMP accumulation (in words),[5],decreased cAMP accumulation
COC(=O)/C=C/C(=O)N[C@@H]1CC[C@@]2(O)[C@H]3Cc4ccc(O)c5c4[C@@]2(CCN3CC2CC2)[C@H]1O5 [β-funaltrexamine],Ki values (in words),[3],nanomolar range
same,Ki,[3]; read-out: Ki values,1.3 ± 0.1 nM
same,Ki,[6],0.29 nM
"CTOP, D-Phe-Cys-Tyr-D-Trp-Orn-Thr-Pen-Thr-NH2 (peptide)",Ki,[7],3.9 nM
Dynorphin A,difference in Ki between the inventor's clone and the clone of Wang et al.,[8],over 100 fold
same,Ki,Mu1 site,0.7 nM
same,Ki,Mu2 site,2.2 nM
same,Ki,[9],5 nM
same,Ki,[10],3 nM
GGFMTSEKSQTPLVTLFKNAIIKNAYKKGE [des-Tyr^1-β-endorphin],Ki,[6],> 1000 nM
Leu-enkephalin,effect on forskolin-stimulated cAMP accumulation (in words),[5],significantly reduced
"[D-Ala^2, N-Me-Phe^4, Gly-ol^5]-enkephalin (peptide)","DAMGO/control (cAMP with forskolin plus DAMGO over forskolin only), morphine-treated cells",[11],42.4%
same,"DAMGO/control (cAMP with forskolin plus DAMGO over forskolin only), naive cells",[11],71.9%
same,"EC50 of inhibition of forskolin-stimulated intracellular cAMP, naive transfected CHO cells",[11],30 nM
same,"GTPase activity of G proteins, stably transfected CHO cells, 10 µM DAMGO",[11],30%
same,"barium current through a voltage-activated calcium channel, Xenopus oocytes with the channel and the mu opioid receptor, 1 µM DAMGO",[11],> 80 % reduction
same,"intracellular cAMP level after forskolin, COS-7 cells expressing MOR-1, 100 nM DAGO",[11],18.1 % reduction
same,"intracellular cAMP level, Forskolin + DAMGO (1 µM), morphine-treated cells (fmol/1 × 10^3 cells)",[11],38.9
same,"intracellular cAMP level, Forskolin + DAMGO (1 µM), naive cells (fmol/1 × 10^3 cells)",[11],25.6
same,"low Km GTPase activity, membranes of stably transfected CHO cells, 1 µM DAMGO",[11],33%
same,"maximal inhibition of intracellular cAMP, naive transfected CHO cells",[11],25%
same,"maximal inhibition of intracellular cAMP, transfected CHO cells treated with morphine for 24 hr",[11],60%
same,Kd,[12],1 nM
same,decrease of specific labelling by GTPgS,[13],55%
same,decrease of specific labelling by GTPgS,[14],65%
same,Bmax (fmol/mg membrane protein),[15],630
same,Kd,[15],0.47 nM
same,Bmax (fmol/mg membrane protein),[16],381
same,decrease of labelling after PTX-pretreatment,[17],42%
same,decrease of labelling after PTX-pretreatment,[18],79%
same,Ki,[19],2.8 nM
same,Bmax,[20],232 fmol/mg
same,Kd,[20],1 nM
same,specific binding,[21],1 fmol/oocyte
"[D-Pen^2,5]-enkephalin (peptide)",IC50,[22],> 1000 nM
cyclic somatostatin (peptide),IC50,[19],11000 nM
"YGGFMTSEKSQTPLVTLFKNAIIKNAYKKGE (peptide, UniProt P01189 237-267, looked up, mature) [β-endorphin]",Ki,[23],1.7 nM
"AGCKNFFWKTFTSC (peptide, UniProt P61278 103-116, looked up, mature) [Somatostatin-1-14]",IC50,[19],730000 nM
